This is an account of results in patent US20260126425A1.

The target of assay [1] is SARS-CoV-2 Spike protein (Spike trimer) (SARS-CoV-2) (UniProt P0DTC2).
The target is the same in assay [2]. This is another data set of the same source.
Assay [3] has the same target. This is another data set of the same source.

As a reminder, the Kd is the equilibrium constant for the complex coming apart. A lower Kd goes with tighter binding. As a reminder, the EC50 (read off the curve) is the midpoint of the concentration-response curve. A lower EC50 (read off the curve) goes with a more potent agent. On to Ty1-modified ClyA nanopore (ClyA-f-Ty1), for which the equilibrium dissociation constant (Kd) in assay [1] turned out to be 0.761 nM. The EC50 (read off the curve) in assay [2] is 0.6 nM. In addition, the constant fit of Log10(tin (ms)) against Spike protein concentration (pM) in assay [3] is 1.48 Log10(ms).
